Laboratory results as given in the RNAGym collection of RNA variant scans (doi:10.1093/molbev/msab373).

B1: Azoarcus group I ribozyme (parent)
chain: GUGCCUUGCGCCGGGAAACCACGCAAGGGAUGGUGUCAAAUUCGGCGAAACCUAAGCGCCCGCCCGGGCGUAUGGCAACGCCGAGCCAAGCUUCGGCGCCUGCGCCGAUGAAGGUGUAGAGACUAGACGGCACCCACCUAAGGCAAACGCUAUGGUGAAGGCAUAGUCCAGGGAGUGGCGAAAGUCACACAAACCGG

Variants of: B1
Experiment: reverse-splicing fitness (ratio to wild type); higher = more active; in vitro selection; Mg2+ level not given
Method in brief: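 An in vitro group I ribozyme library with randomized positions was T7-transcribed and gel-purified. In triplicate, 10 pmol RNA in EPPS pH 7.5 was reacted with 50 pmoles of a 30-nt RNA substrate for 1 h at 37 °C across several added MgCl2 levels (1–48 mM), then stopped with EDTA. Products were reverse transcribed from a substrate-complementary primer, PCR-amplified and sequenced (HiSeq 4000). Fitness is a variant's read proportion after selection over that before, normalised to wild type.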

Variant | reverse-splicing fitness
GUGCCUUGCGCCGGGAAACCACGCAAGGGAUGGUGUCAAAUUCGGCGAAACCUAAGCGCCCGCCCGGGCGUAUGGCAACGCCGAGCCAAGCUUCGGCGCCUGCGCCGAUGCAGGUGUAGUGACUAGACGGCACCCACCUAAGGCCAACGGUAUGGUGAAGGCAUAGUCCAGGGAGAGGCGAAAGUCACACAAACCGG [A111C A120U A145C C150G U176A] | 0.0207
GUGCCUUGCGCCGGGAAACCACGCAAGGGAUGGUGUCAAAUUCGGCGAAACCUAAGCGCCCGCCCGGGCGUAUGGCAACGCCGAGCCAAGCUUCGGCGCCUGCGCCGAUGCAGGUGUAGUGACUAGACGGCACCCACCUAAGGCCAACGGUAUGGUGAAGGCAUAGUCCAGGGAGCGGCGAAAGUCACACAAACCGG [A111C A120U A145C C150G U176C] | 0.0215
GUGCCUUGCGCCGGGAAACCACGCAAGGGAUGGUGUCAAAUUCGGCGAAACCUAAGCGCCCGCCCGGGCGUAUGGCAACGCCGAGCCAAGCUUCGGCGCCUGCGCCGAUGCAGGUGUAGUGACUAGACGGCACCCACCUAAGGCCAACGGUAUGGUGAAGGCAUAGUCCAGGGAGGGGCGAAAGUCACACAAACCGG [A111C A120U A145C C150G U176G] | 0.00459
GUGCCUUGCGCCGGGAAACCACGCAAGGGAUGGUGUCAAAUUCGGCGAAACCUAAGCGCCCGCCCGGGCGUAUGGCAACGCCGAGCCAAGCUUCGGCGCCUGCGCCGAUGCAGGUGUAGUGACUAGACGGCACCCACCUAAGGCCAACGUUAUGGUGAAGGCAUAGUCCAGGGAGUGGCGAAAGUCACACAAACCGG [A111C A120U A145C C150U] | 0.18
GUGCCUUGCGCCGGGAAACCACGCAAGGGAUGGUGUCAAAUUCGGCGAAACCUAAGCGCCCGCCCGGGCGUAUGGCAACGCCGAGCCAAGCUUCGGCGCCUGCGCCGAUGCAGGUGUAGUGACUAGACGGCACCCACCUAAGGCCAACGUUAUGGUGAAGGCAUAGUCAAGGGAGUGGCGAAAGUCACACAAACCGG [A111C A120U A145C C150U C169A] | 0.00231
GUGCCUUGCGCCGGGAAACCACGCAAGGGAUGGUGUCAAAUUCGGCGAAACCUAAGCGCCCGCCCGGGCGUAUGGCAACGCCGAGCCAAGCUUCGGCGCCUGCGCCGAUGCAGGUGUAGUGACUAGACGGCACCCACCUAAGGCCAACGUUAUGGUGAAGGCAUAGUCAAGGGAGAGGCGAAAGUCACACAAACCGG [A111C A120U A145C C150U C169A U176A] | 0.00274
GUGCCUUGCGCCGGGAAACCACGCAAGGGAUGGUGUCAAAUUCGGCGAAACCUAAGCGCCCGCCCGGGCGUAUGGCAACGCCGAGCCAAGCUUCGGCGCCUGCGCCGAUGCAGGUGUAGUGACUAGACGGCACCCACCUAAGGCCAACGUUAUGGUGAAGGCAUAGUCAAGGGAGCGGCGAAAGUCACACAAACCGG [A111C A120U A145C C150U C169A U176C] | 0.00249
GUGCCUUGCGCCGGGAAACCACGCAAGGGAUGGUGUCAAAUUCGGCGAAACCUAAGCGCCCGCCCGGGCGUAUGGCAACGCCGAGCCAAGCUUCGGCGCCUGCGCCGAUGCAGGUGUAGUGACUAGACGGCACCCACCUAAGGCCAACGUUAUGGUGAAGGCAUAGUCAAGGGAGGGGCGAAAGUCACACAAACCGG [A111C A120U A145C C150U C169A U176G] | 0.00188
GUGCCUUGCGCCGGGAAACCACGCAAGGGAUGGUGUCAAAUUCGGCGAAACCUAAGCGCCCGCCCGGGCGUAUGGCAACGCCGAGCCAAGCUUCGGCGCCUGCGCCGAUGCAGGUGUAGUGACUAGACGGCACCCACCUAAGGCCAACGUUAUGGUGAAGGCAUAGUCGAGGGAGUGGCGAAAGUCACACAAACCGG [A111C A120U A145C C150U C169G] | 0.0128
GUGCCUUGCGCCGGGAAACCACGCAAGGGAUGGUGUCAAAUUCGGCGAAACCUAAGCGCCCGCCCGGGCGUAUGGCAACGCCGAGCCAAGCUUCGGCGCCUGCGCCGAUGCAGGUGUAGUGACUAGACGGCACCCACCUAAGGCCAACGUUAUGGUGAAGGCAUAGUCGAGGGAGAGGCGAAAGUCACACAAACCGG [A111C A120U A145C C150U C169G U176A] | 0.00383
GUGCCUUGCGCCGGGAAACCACGCAAGGGAUGGUGUCAAAUUCGGCGAAACCUAAGCGCCCGCCCGGGCGUAUGGCAACGCCGAGCCAAGCUUCGGCGCCUGCGCCGAUGCAGGUGUAGUGACUAGACGGCACCCACCUAAGGCCAACGUUAUGGUGAAGGCAUAGUCGAGGGAGCGGCGAAAGUCACACAAACCGG [A111C A120U A145C C150U C169G U176C] | 0.00324
GUGCCUUGCGCCGGGAAACCACGCAAGGGAUGGUGUCAAAUUCGGCGAAACCUAAGCGCCCGCCCGGGCGUAUGGCAACGCCGAGCCAAGCUUCGGCGCCUGCGCCGAUGCAGGUGUAGUGACUAGACGGCACCCACCUAAGGCCAACGUUAUGGUGAAGGCAUAGUCGAGGGAGGGGCGAAAGUCACACAAACCGG [A111C A120U A145C C150U C169G U176G] | 0.00229
GUGCCUUGCGCCGGGAAACCACGCAAGGGAUGGUGUCAAAUUCGGCGAAACCUAAGCGCCCGCCCGGGCGUAUGGCAACGCCGAGCCAAGCUUCGGCGCCUGCGCCGAUGCAGGUGUAGUGACUAGACGGCACCCACCUAAGGCCAACGUUAUGGUGAAGGCAUAGUCUAGGGAGUGGCGAAAGUCACACAAACCGG [A111C A120U A145C C150U C169U] | 0.0171
GUGCCUUGCGCCGGGAAACCACGCAAGGGAUGGUGUCAAAUUCGGCGAAACCUAAGCGCCCGCCCGGGCGUAUGGCAACGCCGAGCCAAGCUUCGGCGCCUGCGCCGAUGCAGGUGUAGUGACUAGACGGCACCCACCUAAGGCCAACGUUAUGGUGAAGGCAUAGUCUAGGGAGAGGCGAAAGUCACACAAACCGG [A111C A120U A145C C150U C169U U176A] | 0.00478
GUGCCUUGCGCCGGGAAACCACGCAAGGGAUGGUGUCAAAUUCGGCGAAACCUAAGCGCCCGCCCGGGCGUAUGGCAACGCCGAGCCAAGCUUCGGCGCCUGCGCCGAUGCAGGUGUAGUGACUAGACGGCACCCACCUAAGGCCAACGUUAUGGUGAAGGCAUAGUCUAGGGAGCGGCGAAAGUCACACAAACCGG [A111C A120U A145C C150U C169U U176C] | 0.00414
